Source: patent US20230036655A1 (OTSUKA PHARMACEUTICAL, published 2023)

B1: H49R-L7 (antibody, human IgG1, kappa, V domains shown)
VH: QVQLQESGPGLVKPSETLSLTCTVSGFSINRDCYWIWIRQPPGKGLEYIGYTFYSGITYYNPSLASRTTISRDTSKNQFSLKLSSVTAADTAVYYCARDCDYAMDYWGQGTLVTVSS
VL: DIQMTQSPSSLSASVGDRVTITCRASQDISNYLNWYQQKPGKAVKLLIHYTSTLHSGVPSRFSGSGSGTDYTLTISSLQPEDFATYFCQQGNTLPWTFGQGTKLEIKR
notes: In the label, H means the H chain; also called HuMAB2 variant H49R
B2: H3-L74H (antibody, human IgG1, kappa, V domains shown)
VH: QVQLQESGPGLVKPSETLSLTCTVSGFSINSDCYWIWIRQPPGKGLEYIGYTFYSGITYYNPSLASRTTISRDTSKNQFSLKLSSVTAADTAVYYCARDCDYAMDYWGQGTLVTVSS
VL: DIQMTQSPSSLSASVGDRVTITCRASQDISNYLNWYQQKPGKAVKLLIHYTSTHHSGVPSRFSGSGSGTDYTLTISSLQPEDFATYFCQQGNTLPWTFGQGTKLEIKR
notes: In the label, L means the L chain; also called HuMAB2 variant L74H
B3: H71Y-L7 (antibody, human IgG1, kappa, V domains shown)
VH: QVQLQESGPGLVKPSETLSLTCTVSGFSINSDCYWIWIRQPPGKGLEYIGYTYYSGITYYNPSLASRTTISRDTSKNQFSLKLSSVTAADTAVYYCARDCDYAMDYWGQGTLVTVSS
VL: DIQMTQSPSSLSASVGDRVTITCRASQDISNYLNWYQQKPGKAVKLLIHYTSTLHSGVPSRFSGSGSGTDYTLTISSLQPEDFATYFCQQGNTLPWTFGQGTKLEIKR
notes: In the label, H means the H chain; also called HuMAB2 variant H71Y
B4: H3-L72F (antibody, human IgG1, kappa, V domains shown)
VH: QVQLQESGPGLVKPSETLSLTCTVSGFSINSDCYWIWIRQPPGKGLEYIGYTFYSGITYYNPSLASRTTISRDTSKNQFSLKLSSVTAADTAVYYCARDCDYAMDYWGQGTLVTVSS
VL: DIQMTQSPSSLSASVGDRVTITCRASQDISNYLNWYQQKPGKAVKLLIHYTFTLHSGVPSRFSGSGSGTDYTLTISSLQPEDFATYFCQQGNTLPWTFGQGTKLEIKR
notes: In the label, L means the L chain; also called HuMAB2 variant L72F
B5: H49D-L7 (antibody, human IgG1, kappa, V domains shown)
VH: QVQLQESGPGLVKPSETLSLTCTVSGFSINDDCYWIWIRQPPGKGLEYIGYTFYSGITYYNPSLASRTTISRDTSKNQFSLKLSSVTAADTAVYYCARDCDYAMDYWGQGTLVTVSS
VL: DIQMTQSPSSLSASVGDRVTITCRASQDISNYLNWYQQKPGKAVKLLIHYTSTLHSGVPSRFSGSGSGTDYTLTISSLQPEDFATYFCQQGNTLPWTFGQGTKLEIKR
notes: In the label, H means the H chain; also called HuMAB2 variant H49D
B6: H3-L48K (antibody, human IgG1, kappa, V domains shown)
VH: QVQLQESGPGLVKPSETLSLTCTVSGFSINSDCYWIWIRQPPGKGLEYIGYTFYSGITYYNPSLASRTTISRDTSKNQFSLKLSSVTAADTAVYYCARDCDYAMDYWGQGTLVTVSS
VL: DIQMTQSPSSLSASVGDRVTITCRASQKISNYLNWYQQKPGKAVKLLIHYTSTLHSGVPSRFSGSGSGTDYTLTISSLQPEDFATYFCQQGNTLPWTFGQGTKLEIKR
notes: In the label, L means the L chain; Tested as culture supernatant; also called HuMAB2 variant L48K
B7: H48S-L7 (antibody, human IgG1, kappa, V domains shown)
VH: QVQLQESGPGLVKPSETLSLTCTVSGFSISSDCYWIWIRQPPGKGLEYIGYTFYSGITYYNPSLASRTTISRDTSKNQFSLKLSSVTAADTAVYYCARDCDYAMDYWGQGTLVTVSS
VL: DIQMTQSPSSLSASVGDRVTITCRASQDISNYLNWYQQKPGKAVKLLIHYTSTLHSGVPSRFSGSGSGTDYTLTISSLQPEDFATYFCQQGNTLPWTFGQGTKLEIKR
notes: Tested as culture supernatant; also called HuMAB2 variant H48S
B8: H3-L112D (antibody, human IgG1, kappa, V domains shown)
VH: QVQLQESGPGLVKPSETLSLTCTVSGFSINSDCYWIWIRQPPGKGLEYIGYTFYSGITYYNPSLASRTTISRDTSKNQFSLKLSSVTAADTAVYYCARDCDYAMDYWGQGTLVTVSS
VL: DIQMTQSPSSLSASVGDRVTITCRASQDISNYLNWYQQKPGKAVKLLIHYTSTLHSGVPSRFSGSGSGTDYTLTISSLQPEDFATYFCQQGDTLPWTFGQGTKLEIKR
notes: In the label, L means the L chain; Tested as culture supernatant; also called HuMAB2 variant L112D
B9: H83R-L7 (antibody, human IgG1, kappa, V domains shown)
VH: QVQLQESGPGLVKPSETLSLTCTVSGFSINSDCYWIWIRQPPGKGLEYIGYTFYSGITYYNPSLRSRTTISRDTSKNQFSLKLSSVTAADTAVYYCARDCDYAMDYWGQGTLVTVSS
VL: DIQMTQSPSSLSASVGDRVTITCRASQDISNYLNWYQQKPGKAVKLLIHYTSTLHSGVPSRFSGSGSGTDYTLTISSLQPEDFATYFCQQGNTLPWTFGQGTKLEIKR
notes: In the label, H means the H chain; Tested as culture supernatant; also called HuMAB2 variant H83R
B10: H120F-L7 (antibody, human IgG1, kappa, V domains shown)
VH: QVQLQESGPGLVKPSETLSLTCTVSGFSINSDCYWIWIRQPPGKGLEYIGYTFYSGITYYNPSLASRTTISRDTSKNQFSLKLSSVTAADTAVYYCARDCDFAMDYWGQGTLVTVSS
VL: DIQMTQSPSSLSASVGDRVTITCRASQDISNYLNWYQQKPGKAVKLLIHYTSTLHSGVPSRFSGSGSGTDYTLTISSLQPEDFATYFCQQGNTLPWTFGQGTKLEIKR
notes: In the label, H means the H chain; Tested as culture supernatant; also called HuMAB2 variant H120F

target: T1, human GDF15 (hGDF15), mature, wild-type (human, UniProt Q99988 197-308); assay: ELISA, hGDF15 immobilised
T1 construct: Bought recombinant protein: R&D Systems 957-GD-025/CF in most assays, 9279-GD in the crystal and the GDF15/GFRAL/RET assay; It was biotinylated in the GFRAL assay; also called hGDF15 (WT); rhGDF15
T1 sequence: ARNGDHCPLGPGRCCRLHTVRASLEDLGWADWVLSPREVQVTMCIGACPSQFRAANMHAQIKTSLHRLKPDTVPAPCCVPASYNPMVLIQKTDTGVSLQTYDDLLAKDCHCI

Question: Does B1 bind?
Answer: Result: binds

Question: Does B2 bind?
Answer: Result: binds

Question: Does B3 bind?
Answer: Result: binds

Question: Does B4 bind?
Answer: Result: binds

Question: Does B5 bind?
Answer: Result: binds

target: T1, human GDF15 (hGDF15), mature, wild-type; assay: ELISA, hGDF15 immobilised; binding at 5 ng/mL antibody, HuMAB2 = 100
Method: A 100 μL hGDF15 solution (0.4 μg/ml) was added to a 96-well plate and left at 4° C. until the next morning to prepare a plate for ELISA. To the plate, 1% BSA was added for blocking for 1 hour. A dilution series of the culture supernatant containing the variant antibody was prepared from 30-fold dilution (common ratio of dilution factor was 3), and 100 μL of each solution was added to the ELISA plate and left for 2 hours. As a secondary antibody, an HRP conjugated anti-human IgG antibody (Gene Tex, GTX26759) (20000-fold dilution) was added and left for 1 hour. TMB (Sigma, T-0440) was used for color development reaction, and 2N sulfuric acid was used as a reaction terminator. The absorbance was measured at 450 nm.

Question: How did the “fold change in binding strength compared to HuMAB2” value (“fold change in binding strength” below) turn out when B6 was run?
Answer: The value was about 1.5 fold.

Question: With B7 as the binder, how does the “fold change in binding strength” value read?
Answer: The value was about 1.5 fold.

Question: For B8, which “fold change in binding strength” value is on record?
Answer: The value was about 1.5 fold.

Question: B9 was tested. Which “fold change in binding strength” value did it give?
Answer: Its value is about 1.5 fold.

Question: B10 was tested. Which “fold change in binding strength” value did it give?
Answer: The value was about 1.5 fold.
